As a reminder, the Kd is a measure of binding affinity in units of concentration. A low value points to a tighter complex. For orientation: koff means the rate constant with which the complex falls apart. The low end stands for slow dissociation, the high end for fast dissociation. The term kon denotes the rate constant with which the complex forms.

Data on 2 molecules can be found in patent publication US20240368565A1 (PROMEGA, published 2024).

The target in experiment [1] is Aga2-15xGly/Ser-EGFP-4xGly/Ser-HaloTag[3-19]-4xGly/Ser-…. Briefly: flow cytometry of yeast displaying the tag; reporter bound, washed, then JF549 HaloTag ligand. On the technique in general: In flow cytometry, cells or beads pass a laser one at a time.
The target in experiment [2] is Aga2-15xGly/Ser-EGFP-4xGly/Ser-HaloTag[3-19]-4xGly/Ser-VS-HiBiT. Described as above.
Experiment [3] has as its target Aga2-15xGly/Ser-EGFP-4xGly/Ser-HaloTag[3-19]-4xGly/Ser-…. The experiment is described as above. This is another data set of the same source.
Experiment [4] has the same target. The experiment is described as above. This is another data set of the same source.
In experiment [5] the target is Aga2-15xGly/Ser-4xGly/Ser-HaloTag[3-19]-4xGly/Ser-VS-HiBiT. Described as above.
Experiment [6] concerns the target T1, Biotin-HaloTag[3-19] (I2R)-4xGly/Ser-VS-HiBiT (N-terminal biotin).
T1 construct: Synthetic peptide; also called HaloTag[3-19](12R)-4×Gly/Ser-VS-HiBiT; DualTag peptide
T1 peptide: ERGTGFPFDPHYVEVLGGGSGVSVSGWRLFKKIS
The experiment in a line: BLI; biotin-peptide on streptavidin probe; PBST, 25 C. On the technique in general: In BLI a coated tip is dipped into the sample, and binding shifts an interference pattern.

The target of experiment [7] is T2, Biotin-HaloTag[3-19] (I2R)-VS-HiBiT (N-terminal biotin (on Glu1), used for immobilisation on streptavidin probes; not carried by the letters).
T2 construct: Synthetic peptide
T2 peptide: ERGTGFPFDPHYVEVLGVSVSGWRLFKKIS
Described as above.

The target in experiment [8] is T3, Biotin-HaloTag[3-19] (I2R)-4xGly/Ser-HiBiT (N-terminal biotin (on Glu1), used for immobilisation on streptavidin probes; not carried by the letters).
T3 construct: Synthetic peptide
T3 peptide: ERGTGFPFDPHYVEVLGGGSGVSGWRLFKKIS
The experiment is described as above.

Experiment [9] deals with T4, VS-HiBiT-HaloTag[3-19] (I2R) (not fully specified; N-terminal biotin (on Val1) per the head of Table 1 ('All peptides are biotinylated at the N-terminus'), though Table 2 does not print Biotin for this entry; not carried by the …).
T4 construct: Synthetic peptide
Described as above.

Experiment [10] concerns the target T5, Biotin-HaloTag[3-19] (I2R)-4xGly/Ser-VS-HiBiT (K8R + K9R) (N-terminal biotin (on Glu1), used for immobilisation on streptavidin probes; not carried by the letters).
T5 construct: Synthetic peptide
T5 peptide: T1 peptide with K31R, K32R
The experiment is described as above.

Experiment [11] has as its target T6, Biotin-VS-HiBiT-5xGly/Ser-HaloTag[3-19] (I2R) (N-terminal biotin (on Val1), used for immobilisation on streptavidin probes; not carried by the letters).
T6 construct: Synthetic peptide
T6 peptide: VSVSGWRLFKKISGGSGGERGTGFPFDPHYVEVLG
The experiment is described as above.

Numbering of substitutions follows the chain as printed. Names may count otherwise.

B1: HaloTag[22-297](M2F)-12xGly/Ser-LgBiT-3xGly/Ser-6xHis (other)
chain: MFHYVDVGPRDGTPVLFLHGNPTSSYVWRNIIPHVAPTHRCIAPDLIGMGKSDKPDLGYFFDDHVRFMDAFIEALGLEEVVLVIHDWGSALGFHWAKRNPERVKGIAFMEFIRPIPTWDEWPEFARETFQAFRTTDVGRKLIIDQNVFIEGTLPMGVVRPLTEVEMDHYREPFLNPVDREPLWRFPNELPIAGEPANIVALVEEYMDWLHQSPVPKLLFWGTPGVLIPPAEAARLAKSLPNCKAVDIGPGLNLLQEDNPDLIGSEIARWLSTLEISGGSGGSGGGGSGGMVFTLEDFVGDWEQTAAYNLDQVLEQGGVSSLLQNLAVSVTPIQRIVRSGENALKIDIHVIIPYEGLSADQMAQIEEVFKVVYPVDDHHFKVILPYGTLVIDGVTPNMLNYFGRPYEGIAVFDGKKITVTGTLWNGNKIIDERLITPDGSMLFRVTINSGSGHHHHHH
notes: Purified tandem polypeptide reporter (large split-HaloTag fragment fused to LgBiT); also called Reporter
With B1, the “percent of cells in the JF549+ gate” value in experiment [1] was 44.8%; in experiment [2] it was 46.4%; in experiment [3], 6.96%; in experiment [4] it was 44.2%; in experiment [5] it was 48.9%. Moreover, the Kd in [6] amounted to 1.61 nM. In experiment [6], this molecule showed a koff of 8.34e-05 s⁻¹. The kon in [6] came out at 51900 M⁻¹ s⁻¹.

B2: HaloTag[22-297](M2F + D53G + K140E)-12xGly/Ser-LgBiT-3xGly/Ser-6xHis (other)
chain: B1 chain with D53G, K140E
For B2, the Kd in [7] was 0.713 nM; in experiment [8] it was 0.323 nM; in [9], 0.613 nM; in experiment [6], 0.576 nM; in experiment [11], 0.782 nM. The koff is 6.05e-05 s⁻¹ in experiment [7]; 1.98e-05 s⁻¹ in experiment [8]; 6.77e-05 s⁻¹ in experiment [9]; 4.82e-05 s⁻¹ in experiment [6]; 6.94e-05 s⁻¹ in experiment [11]. For the same molecule, the kon in [7] turned out to be 84800 M⁻¹ s⁻¹; in experiment [8], 61300 M⁻¹ s⁻¹; in experiment [9], 110000 M⁻¹ s⁻¹; in experiment [10], 71400 M⁻¹ s⁻¹; in experiment [6], 83800 M⁻¹ s⁻¹; in experiment [11], 88700 M⁻¹ s⁻¹.
